According to patent US20220356245A1 (FORTY SEVEN, published 2022):
Changes are numbered by the printed parent chain. Numbers in names are those of the source.

T1: mouse CD47 (mCD47) expressed on CHO cells (mouse, UniProt Q61735 19-303)
T1 construct: whole, on cells; also called CHO-mCD47
T1 sequence (looked up): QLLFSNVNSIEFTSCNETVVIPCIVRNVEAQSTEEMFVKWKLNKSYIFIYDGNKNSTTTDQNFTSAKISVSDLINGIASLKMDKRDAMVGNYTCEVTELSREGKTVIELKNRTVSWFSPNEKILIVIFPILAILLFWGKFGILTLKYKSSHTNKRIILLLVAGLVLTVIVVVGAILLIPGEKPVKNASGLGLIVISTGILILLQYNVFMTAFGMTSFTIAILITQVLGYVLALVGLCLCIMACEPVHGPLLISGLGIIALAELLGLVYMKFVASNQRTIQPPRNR

B1: 2A1 (mouse antibody from Inhibrx) (antibody, V domains shown)
VH: EVQLQQSGAELVRSGASVKLSCTASGFNIKDYYLHWVKQRPEQGLEWIGWIDPDNGDTEFAPKFQGKATMTADTSSNTAYLQLSSLTSEDTAVYYCNAAYGSSSYPMDYWGQGTSVTV
VL: DIKMTQSPSSLYASLGERVTITCKASQDIHRYLSWFQQKPGKSPKILIYRANRLVDGVPSRFSGSGSGQDYSLTISSLEYEDMGIYYCLQYDEFPYTFGGGTKLEMK
B2: Candidate 14 (VT008-AL6-14G1-16K1), mouse IgG (antibody, V domains shown)
VH: QVQLQQPGAELVKPGASLRVSCKASGYTFTNYWMYWVRQRPGRGLEWIGWIDPNSGGTKYNEKFKSKATLTVDKPSSTAYMQLSSLTSEDSAVYNCARGGYTMDYWGQGTSVTVSS
VL: DVVMTQTPLSLPVSLGDQASISCRASQSLVHSNGNTYLHWYLQKPGQSPKLLIYKVSNRFSGVPDRFSGSGSGTDFTLKISRVEAEDLGVYFCSQSTHVPLTFGAGTKLELK
notes: Recombinant mouse IgG2a or mIgG1 format, by assay
B3: B6H12 (mouse IgG1, Abcam) (antibody, V domains shown)
VH: EVQLVESGGDLVKPGGSLKLSCAASGFTFSGYGMSWVRQTPDKRLEWVATITSGGTYTYYPDSVKGRFTISRDNAKNTLYLQIDSLKSEDTAIYFCARSLAGNAMDYWGQGTSVTVSS
VL: DIVMTQSPATLSVTPGDRVSLSCRASQTISDYLHWYQQKSHESPRLLIKFASQSISGIPSRFSGSGSGSDFTLSINSVEPEDVGVYYCQNGHGFPRTFGGGTKLEIK
B4: 5A3M3 (mouse antibody from Novimmune) (antibody, V domains shown)
VH: not shown
VL: DIQMTQSPSSLSASVGDRVTITCQASQSISSYLNWYQQKPGKAPKLLIYAASSLETGVPSRFSGSGSGTDFTFTISSLQPEDIATYYCQQKHPRGPRTFGQGTKVEIKR
B5: h20-VH2-VL3 (candidate 20.8) (antibody, human IgG4 S228P, kappa, V domains shown)
VH: QVQLVQSGAEVKKPGASVKVSCKASGYSFTDYYINWVRQAPGQGLEWMGRIYPGIGNTYYNKKFKGRVTITRDTSASTAYMELSSLRSEDTAVYYCARGHYGRGMDYWGQGTLVTVSS
VL: EIVLTQSPDSLAVSLGERATINCKSSQSLLNSIDQKNYLAWYQQKAGQSPKLLIYFASTKESGVPDRFSGSGSGTDFTLTIDSLQAEDVAVYYCQQHYSTPWTFGGGTKVEIKR
notes: hIgG4-S228P/kappa; also called h20-H2-L3
B6: h20-VH3-VL4 (candidate 20.14) (antibody, human IgG4 S228P, kappa, V domains shown)
VH: B5 VH with I70V, A76I, Y80H, E89D, L113A
VL: B5 VL with E1D, L4M, A46P, S49P, D82S, Y93F, T108A
notes: hIgG4-S228P/kappa; also called h20-H3-L4
B7: h20-VH5-VL5 (candidate 20.25) (antibody, human IgG4 S228P, kappa, V domains shown)
VH: B5 VH with I70M, D73Y, A76I, S85R, E89D, Y95F, L113T
VL: B5 VL with E1D, L4M, A46P, S49P, D82S, S83G, Y93F, K113R
notes: hIgG4-S228P/kappa; also called h20-H5-L5
B8: h20-VH1-VL3 (candidate 20.3) (antibody, human IgG4 S228P, kappa, V domains shown)
VH: QVQLLESGAVLARPGTSVKISCKASGYSFTDYYINWVKQRPGQGLEWIGRIYPGIGNTYYNKKFKGRAKLTAATSASIAYLEFSSLTNEDSAVYYCARGHYGRGMDYWGQGTLVTVSS
VL: B5 VL
notes: hIgG4-S228P/kappa; also called h20-H1-L3
B9: h20-VH4-VL3 (candidate 20.18) (antibody, human IgG4 S228P, kappa, V domains shown)
VH: B5 VH with A16S, R72A, T74K, A76T, L113T
VL: B5 VL
notes: hIgG4-S228P/kappa; also called h20-H4-L3
B10: h20-VH1-VL5 (candidate 20.5) (antibody, human IgG4 S228P, kappa, V domains shown)
VH: B8 VH
VL: B5 VL with E1D, L4M, A46P, S49P, D82S, S83G, Y93F, K113R
notes: hIgG4-S228P/kappa; also called h20-H1-L5
B11: h20-VH2-VL4 (candidate 20.9) (antibody, human IgG4 S228P, kappa, V domains shown)
VH: B5 VH
VL: B5 VL with E1D, L4M, A46P, S49P, D82S, Y93F, T108A
notes: hIgG4-S228P/kappa; also called h20-H2-L4
B12: h20-VH1-VL4 (candidate 20.4) (antibody, human IgG4 S228P, kappa, V domains shown)
VH: B8 VH
VL: B5 VL with E1D, L4M, A46P, S49P, D82S, Y93F, T108A
notes: hIgG4-S228P/kappa; also called h20-H1-L4
B13: h20-VH5-VL4 (candidate 20.24) (antibody, human IgG4 S228P, kappa, V domains shown)
VH: B5 VH with I70M, D73Y, A76I, S85R, E89D, Y95F, L113T
VL: B5 VL with E1D, L4M, A46P, S49P, D82S, Y93F, T108A
notes: hIgG4-S228P/kappa; also called h20-H5-L4
B14: h20-VH3-VL5 (candidate 20.15) (antibody, human IgG4 S228P, kappa, V domains shown)
VH: B5 VH with I70V, A76I, Y80H, E89D, L113A
VL: B5 VL with E1D, L4M, A46P, S49P, D82S, S83G, Y93F, K113R
notes: hIgG4-S228P/kappa; also called h20-H3-L5
B15: h20-VH5-VL3 (candidate 20.23) (antibody, human IgG4 S228P, kappa, V domains shown)
VH: B5 VH with I70M, D73Y, A76I, S85R, E89D, Y95F, L113T
VL: B5 VL
notes: hIgG4-S228P/kappa; also called h20-H5-L3
B16: Candidate 20, chimeric hIgG format (hIgG1 or hIgG4) (antibody, V domains shown)
VH: QVQLKQSGAELVRPGASVKLSCKASGYSFTDYYINWVKQRPGQGLEWIARIYPGIGNTYYNKKFKGKATLTAEKSSSTAYMQLNSLTSEDSAVYFCARGHYGRGMDYWGQGTSVTVSS
VL: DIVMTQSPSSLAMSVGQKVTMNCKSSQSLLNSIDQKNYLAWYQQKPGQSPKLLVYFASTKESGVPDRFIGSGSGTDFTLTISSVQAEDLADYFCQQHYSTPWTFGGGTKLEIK
notes: also called Candidate 20 (hIgG format)
B17: Candidate 33, chimeric hIgG format (hIgG1 or hIgG4) (antibody, V domains shown)
VH: LVQLQQSGPELVKPGTSVKISCRSSGYTFTDYYINWVQQRPGQGLEWVGWIFPGSGLTYYNKKFKGKATLSVDKSSNTAYMLLSSLTSEDSAVYFCARPYYGSRWDYTMDYWGQGTSVTVSS
VL: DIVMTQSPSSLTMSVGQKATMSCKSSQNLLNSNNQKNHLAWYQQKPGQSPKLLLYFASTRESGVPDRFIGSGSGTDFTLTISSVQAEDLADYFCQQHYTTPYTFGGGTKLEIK
notes: also called Candidate 33 (hIgG format)
B18: Candidate 22, chimeric hIgG format (hIgG1 or hIgG4) (antibody, V domains shown)
VH: QVQLQQPGAELVKPGASVKLSCKASGYTFTTYWMHWVKQRPGQGLEWIGMIHPNSGTTNYNEKFKSKATLTVDKSSSSTYMQLSSLTSEDSAVYYCTRSHYYDGHFSYWGQGTLVTVSA
VL: DIVMSQSPSSLAVSAGEKVTMSCKSSQSLLNSRTRKNYLAWYQQKPGQSPKLLIYWASTRESGVPDRFTGSGSGTDFTLTISSVQAEDLAVYYCKQSYNLWTFGGGTRLEIK
notes: also called Candidate 22 (hIgG format)

Target: T2, human CD47 (hCD47) expressed on cells (human, UniProt Q08722 19-323)
T2 construct: Transfected CHO cells or endogenous CD47 of human cells; also called CHO-hCD47; CD47 on Raji cells
Experiment: flow cytometry, hCD47-CHO cells, competition with His-hSIRPα
Procedure: Human CD47-transfected cells (3×10⁵ cells/well of 96-well plate) were first incubated at +4° C. for 30 minutes with serial dilutions of anti-CD47 antibodies or isotype control antibody (in mIgG2a or mIgG1 format). […] The percentage inhibition was plotted against antibody concentration and the IC50 values were calculated using a nonlinear regression analysis model of the GraphPad Prism software.

B1 and B2 are within 1.5-fold of each other in IC50: 0.739 µg/mL for the first, 0.737 µg/mL for the second.

Target: T3, hu-sCD47-6His; extracellular domain of human CD47 antigen with 6His-tag (human)
T3 construct: also called hCD47-his; soluble hCD47
Experiment: SPR Biacore T200, antibody captured, hCD47-his analyte;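 further: antibodies captured on anti-IgG (Fc) CM5 chip, five sequential 10 min antigen injections at rising concentrations, reference flow cell and antigen-free cycle as controls, 1:1 model fit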

First: B1
Second: B2
The Kd of the first is 30-fold lower: 0.127 nM for the first, 3.85 nM for the second. The first binds more tightly here.

For B3, the Kd was 5.14 nM.

Compared with B1, B2 is 68-fold higher in koff: 4.99e-05 s⁻¹ for the first, 0.00337 s⁻¹ for the second.

For B3, the koff was 6.59e-05 s⁻¹.

First: B1
Second: B2
The kon of the first is 2.2-fold lower: 401000 M⁻¹ s⁻¹ for the first, 874000 M⁻¹ s⁻¹ for the second.

With B3 the kon was 12900 M⁻¹ s⁻¹.

Target: T2, human CD47 (hCD47) expressed on cells
Experiment: flow cytometry, Raji cells
Procedure: Raji cells (ATCC-CLL-86; 2×10⁵ cells/well of 96-well plate) were first incubated at +4° C. for 30 minutes with serial dilutions of anti-CD47 antibodies or control isotype antibody (in mIgG2a or mIgG1 format). The cells were then washed and incubated for 30 minutes at +4° C. with a PE-conjugated F(ab)′2 goat anti-mouse IgG antibody ( 1/100 dilution, Beckman Coulter). After washings, the fluorescence of the cells was analyzed by flow cytometry on an Accuri-C6 flow cytometer (BD Biosciences).
The delta of MFI, representing the difference between the intensity measured with the tested antibody and the intensity in the absence of antibody, was calculated for each antibody concentration and the values were plotted against the antibody concentrations. The EC50 values were then calculated by using a nonlinear regression analysis model of the GraphPad Prism software.

B1 and B2 are within 1.5-fold of each other in EC50: 0.058 µg/mL for the first, 0.055 µg/mL for the second.

With B4 the EC50 was 0.301 µg/mL.

Target: T3, hu-sCD47-6His; extracellular domain of …
Experiment: SPR Biacore;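 further: antibodies captured on anti-IgG CM5 chip, soluble His-tagged human CD47 flowed over at rising concentrations, five 10 min injections, flow cell 1 as reference, 1:1 model fit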
Source text: An anti-human or anti-mouse IgG (Fc) was first immobilized on the surface of Serie S Sensor Chips CM5 using the human or mouse antibody capture and amine coupling kits, following the manufacturer's instructions (GE Healthcare). […] The mouse, chimerized or humanized antibodies to be tested were then captured onto the appropriate anti-mouse or anti-human IgG surface in all flow cells except flow cell 1 used as control, at concentration and contact time adjusted so that ˜300 RU were captured on the surface. Binding kinetics were studied by passing increasing concentrations of hCD47-his in a series of five 10 minute injections through all flow cells at a rate of 30 μL/min. […] Following the final injection, buffer was passed across each flow cell for 60 minutes (mouse) or 30 minutes (human) to monitor the dissociation of bound antigen. Regeneration of the binding surface was carried out at the end of the cycle by flowing 3 M MgCl₂ for 60 s at 20 μL/min followed by 10 mM glycine-HCl, pH 1.7 for 180 s at 10 μl/min (for human) or by flowing 10 mM glycine-HCl, ph 1.7 for 360 s at 10 μl/min (for mouse). A second cycle with the same antibodies but no antigen was run as a control. Kinetics binding constants were estimated by non-linear fitting of the sensogram data to the 1:1 binding model provided by the Biacore T200 evaluation software.

B5 and B6 are within 1.5-fold of each other in Kd: 3.65 nM for the first, 3.02 nM for the second.

B7 and B8 are within 1.5-fold of each other in Kd: 9.69 nM for the first, 7.33 nM for the second.

B9 and B10 are within 1.5-fold of each other in Kd: 4.37 nM for the first, 3.53 nM for the second.

Compared with B11, B12 is 2.3-fold higher in Kd: 3.34 nM for the first, 7.58 nM for the second.

Compared with B13, B14 is 4.7-fold lower in Kd: 11 nM for the first, 2.36 nM for the second. The second binds more tightly here.

B15 gave a Kd of 9.93 nM.

B5 and B6 are within 1.5-fold of each other in kon: 189000 M⁻¹ s⁻¹ for the first, 216000 M⁻¹ s⁻¹ for the second.

B7 and B8 are within 1.5-fold of each other in kon: 126000 M⁻¹ s⁻¹ for the first, 131000 M⁻¹ s⁻¹ for the second.

B9 and B10 are within 1.5-fold of each other in kon: 180000 M⁻¹ s⁻¹ for the first, 198000 M⁻¹ s⁻¹ for the second.

Compared with B11, B12 is 1.7-fold lower in kon: 219000 M⁻¹ s⁻¹ for the first, 126000 M⁻¹ s⁻¹ for the second.

Compared with B13, B14 is 2.3-fold higher in kon: 103000 M⁻¹ s⁻¹ for the first, 242000 M⁻¹ s⁻¹ for the second.

B15 showed a kon of 104000 M⁻¹ s⁻¹.

Target: T2, human CD47 (hCD47) expressed on cells
Experiment: flow cytometry, Raji cells, competition with His-hSIRPα
Procedure: The percent inhibition was plotted against antibody concentration and the IC50 values were calculated by using a nonlinear regression analysis model of the GraphPad Prism software.

B16 and B17 are the same in IC50: 0.11 µg/mL for the first, 0.11 µg/mL for the second.

Binder B18 has an IC50 of 0.233 µg/mL.

Target: T2, human CD47 (hCD47) expressed on cells
Experiment: cell-based or functional assay

Going from B1 to B2, the “Phagocytic index, Raji cells and human macrophages, antibody at 0.125 µg/mL” value falls from 113 Raji cells ingested per 100 macrophages to 78.9 Raji cells ingested per 100 macrophages.

Target: T1, mouse CD47 (mCD47) expressed on CHO …
Experiment: flow cytometry, CHO-mCD47 cells (not shown)

B5: no binding.
B6: no binding.
B7: no binding.
B8: no binding.
B9: no binding.
B10: no binding.
B11: no binding.
B12: no binding.
B13: no binding.
B14: no binding.
B15: no binding.

Target: T2, human CD47 (hCD47) expressed on cells
Experiment: flow cytometry, Raji cells, competition with hSIRPα

First: B5
Second: B6
The IC50 of the first is 1.7-fold lower: 0.079 µg/mL for the first, 0.135 µg/mL for the second.

Compared with B7, B8 is 2-fold higher in IC50: 0.112 µg/mL for the first, 0.228 µg/mL for the second.

B9 and B10 are within 1.5-fold of each other in IC50: 0.142 µg/mL for the first, 0.111 µg/mL for the second.

Going from B11 to B12, the IC50 rises from 0.123 µg/mL to 0.261 µg/mL (2.1-fold).

B13 and B14 are within 1.5-fold of each other in IC50: 0.133 µg/mL for the first, 0.113 µg/mL for the second.

With B15 the IC50 was 0.169 µg/mL.

Target: T3, hu-sCD47-6His; extracellular domain of …
Experiment: SPR Biacore; head read as x 10^-4;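 on Kd: antibodies captured on anti-IgG CM5 chip, soluble His-tagged human CD47 flowed over at rising concentrations, five 10 min injections, flow cell 1 as reference, 1:1 model fit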;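 on kon: antibodies captured on anti-IgG CM5 chip, soluble His-tagged human CD47 flowed over at rising concentrations, five 10 min injections, flow cell 1 as reference, 1:1 model fit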

B5 and B6 are within 1.5-fold of each other in koff: 0.000628 s⁻¹ for the first, 0.000581 s⁻¹ for the second.

B7 and B8 are within 1.5-fold of each other in koff: 0.00109 s⁻¹ for the first, 0.000839 s⁻¹ for the second.

B9 and B10 are within 1.5-fold of each other in koff: 0.000733 s⁻¹ for the first, 0.000595 s⁻¹ for the second.

B11 and B12 are within 1.5-fold of each other in koff: 0.000632 s⁻¹ for the first, 0.000772 s⁻¹ for the second.

Compared with B13, B14 is 1.9-fold lower in koff: 0.00102 s⁻¹ for the first, 0.000528 s⁻¹ for the second.

Binder B15 has a koff of 0.000841 s⁻¹.

Target: T2, human CD47 (hCD47) expressed on cells
Experiment: flow cytometry, Raji cells
Remark: another data set of the same source

B5 and B6 are within 1.5-fold of each other in EC50: 0.184 µg/mL for the first, 0.143 µg/mL for the second.

B7 and B8 are within 1.5-fold of each other in EC50: 0.159 µg/mL for the first, 0.184 µg/mL for the second.

B9 and B10 are within 1.5-fold of each other in EC50: 0.164 µg/mL for the first, 0.206 µg/mL for the second.

B11 and B12 are within 1.5-fold of each other in EC50: 0.173 µg/mL for the first, 0.248 µg/mL for the second.

B13 and B14 are within 1.5-fold of each other in EC50: 0.177 µg/mL for the first, 0.143 µg/mL for the second.

For B15, the EC50 was 0.19 µg/mL.
